Measured values from article PMC4453223.

Target: microtubule (MT) filaments

Chain of DmK-4AA (P17210 other isoform, or with tags, fused parts or gaps): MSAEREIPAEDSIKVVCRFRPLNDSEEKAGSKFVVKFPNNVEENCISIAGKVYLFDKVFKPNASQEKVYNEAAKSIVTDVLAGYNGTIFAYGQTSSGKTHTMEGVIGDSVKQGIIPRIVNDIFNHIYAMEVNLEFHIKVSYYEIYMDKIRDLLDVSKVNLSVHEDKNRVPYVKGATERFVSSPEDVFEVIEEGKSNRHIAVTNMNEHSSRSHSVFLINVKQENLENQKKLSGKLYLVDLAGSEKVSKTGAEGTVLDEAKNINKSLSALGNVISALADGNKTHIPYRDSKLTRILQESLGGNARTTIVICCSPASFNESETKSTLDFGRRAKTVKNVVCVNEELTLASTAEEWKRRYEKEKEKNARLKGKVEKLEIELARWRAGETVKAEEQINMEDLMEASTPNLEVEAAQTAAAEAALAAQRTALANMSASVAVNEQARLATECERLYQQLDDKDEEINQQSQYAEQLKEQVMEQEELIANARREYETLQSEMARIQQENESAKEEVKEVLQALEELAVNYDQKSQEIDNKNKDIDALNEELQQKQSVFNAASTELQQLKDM

## DmK-4AA (from UniProt P17210 1-559) (domain or fragment)
  half-site mantADP release (stopped flow): share of motors releasing mantADP from both heads upon the addition of MTs: 16%
